According to PMC2821021 (Biochemical and biophysical research communications, 2009):

Biological target: T1, 1st beta propeller of human LRP5 (human, UniProt O75197 32-338)
T1 sequence (looked up): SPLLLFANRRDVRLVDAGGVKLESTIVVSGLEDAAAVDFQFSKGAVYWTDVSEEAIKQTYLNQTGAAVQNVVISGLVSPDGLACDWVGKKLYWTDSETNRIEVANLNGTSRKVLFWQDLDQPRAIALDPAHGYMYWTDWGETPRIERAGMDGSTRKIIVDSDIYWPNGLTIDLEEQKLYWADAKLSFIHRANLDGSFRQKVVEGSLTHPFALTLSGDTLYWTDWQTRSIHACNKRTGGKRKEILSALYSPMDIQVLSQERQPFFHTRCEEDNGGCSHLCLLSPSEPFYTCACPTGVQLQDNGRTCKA
Assay: SPR

binding result: binds
B1: Recombinant insect cell-produced human sclerostin (natural protein, UniProt Q9BQB4 24-213, looked up)
chain: QGWQAFKNDATEIIPELGEYPEPPPELENNKTMNRAENGGRPPHHPFETKDVSEYSCRELHFTRYVTDGPCRSAKPVTELVCSGQCGPARLLPNAIGRGKWWRPSGPDFRCIPDRYRAQRVQLLCPGGEAPRARKVRLVASCKCKRLTRFHNQSELKDFGTEAARPQKGRKPRPRARSAKANQAELENAY
